*1 amine or outer side, *2 acyl side, *3 side chain or, on linkers, in order; H or OH if unused. Bridges are numbered along the chain shown (N, C = ends). [ ]: non-standard residue; d: D form. TBMB = c1c(C[*:1])cc(C[*:3])cc1C[*:2]; NMeY = CN[C@@H](Cc1ccc(O)cc1)C(=O)O; pXylylene = c1cc(C[*:2])ccc1C[*:1]; Dap = NC[C@H](N)C(=O)O; Mpa = O=C(O)CCS; Sar = CNCC(=O)O
T1: Vasoactive intestinal peptide receptor 2 (VIPR2), human, on the human VIPR2-expressing cell line (Catalog No. … (human, UniProt P41587 24-438))
T1 construct: whole, on cells; also called VPAC2; VIPR2-expressing cells
T1 sequence (looked up): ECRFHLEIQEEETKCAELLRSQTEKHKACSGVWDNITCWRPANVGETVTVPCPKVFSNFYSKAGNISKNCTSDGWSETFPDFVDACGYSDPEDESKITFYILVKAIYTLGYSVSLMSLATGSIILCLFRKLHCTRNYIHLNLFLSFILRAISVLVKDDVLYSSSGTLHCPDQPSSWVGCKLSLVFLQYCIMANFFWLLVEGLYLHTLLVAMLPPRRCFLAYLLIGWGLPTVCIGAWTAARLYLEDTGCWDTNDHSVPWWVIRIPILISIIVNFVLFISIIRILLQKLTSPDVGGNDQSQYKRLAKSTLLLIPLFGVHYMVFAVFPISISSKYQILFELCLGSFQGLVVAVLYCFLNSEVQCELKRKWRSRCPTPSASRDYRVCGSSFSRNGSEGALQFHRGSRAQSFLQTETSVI

B1: Seq-7 (peptide)
peptide: [Mpa][NMeY]LPKYLCDLI-NH2
modifications: linker 1-8 via pXylylene; lactam 5-9
SMILES: CC[C@H](C)[C@H](NC(=O)[C@H](CC(C)C)NC(=O)[C@@H]1CC(=O)NCCCC[C@@H]2NC(=O)[C@@H]3CCCN3C(=O)[C@H](CC(C)C)NC(=O)[C@H](Cc3ccc(O)cc3)N(C)C(=O)CCSCc3ccc(cc3)CSC[C@H](NC(=O)[C@H](CC(C)C)NC(=O)[C@H](Cc3ccc(O)cc3)NC2=O)C(=O)N1)C(N)=O
notes: Synthetic bicyclic peptide
B2: Seq-5 (peptide)
peptide: XYLPKYLCDLI
modifications: Mpa at position 1; NmeTyr at position 2; thioether bridge via DBoXy (1,2-bis(bromomethyl)benzene) linker (1-8); side-chain amide(5-9) between Lys5 and Asp9; C-terminal amide (NH2)
notes: Synthetic bicyclic peptide
B3: Seq-10 (peptide)
peptide: Ac-CPPYLPKYLCDLI-NH2
modifications: disulfide 1-10; lactam 7-11
SMILES: CC[C@H](C)[C@H](NC(=O)[C@H](CC(C)C)NC(=O)[C@@H]1CC(=O)NCCCC[C@@H]2NC(=O)[C@@H]3CCCN3C(=O)[C@H](CC(C)C)NC(=O)[C@H](Cc3ccc(O)cc3)NC(=O)[C@@H]3CCCN3C(=O)[C@@H]3CCCN3C(=O)[C@@H](NC(C)=O)CSSC[C@H](NC(=O)[C@H](CC(C)C)NC(=O)[C@H](Cc3ccc(O)cc3)NC2=O)C(=O)N1)C(N)=O
notes: Synthetic bicyclic peptide
B4: Seq-6 (peptide)
peptide: XYLPKYLCDLI
modifications: Mpa at position 1; NmeTyr at position 2; thioether bridge via DBmXy (1,3-bis(bromomethyl)benzene) linker (1-8); side-chain amide(5-9) between Lys5 and Asp9; C-terminal amide (NH2)
notes: Synthetic bicyclic peptide
B5: Seq-1 (peptide)
peptide: [Mpa]PPYLPKYLCDLI-NH2
modifications: disulfide 1-10; lactam 7-11
SMILES: CC[C@H](C)[C@H](NC(=O)[C@H](CC(C)C)NC(=O)[C@@H]1CC(=O)NCCCC[C@@H]2NC(=O)[C@@H]3CCCN3C(=O)[C@H](CC(C)C)NC(=O)[C@H](Cc3ccc(O)cc3)NC(=O)[C@@H]3CCCN3C(=O)[C@@H]3CCCN3C(=O)CCSSC[C@H](NC(=O)[C@H](CC(C)C)NC(=O)[C@H](Cc3ccc(O)cc3)NC2=O)C(=O)N1)C(N)=O
notes: Synthetic bicyclic peptide derived from VIpep-3
B6: Seq-4 (peptide)
peptide: XYLPKYLCDLI
modifications: Mpa at position 1; NmeTyr at position 2; thioether bridge via DIHex (1,6-diiodohexane) linker (1-8); side-chain amide(5-9) between Lys5 and Asp9; C-terminal amide (NH2)
notes: Synthetic bicyclic peptide
B7: Seq-3 (peptide)
peptide: XYLPKYLCDLI
modifications: Mpa at position 1; NmeTyr at position 2; thioether bridge via DIPen (1,5-diiodopentane) linker (1-8); side-chain amide(5-9) between Lys5 and Asp9; C-terminal amide (NH2)
notes: Synthetic bicyclic peptide
B8: Seq-2 (peptide)
peptide: XYLPKYLCDLI
modifications: Mpa at position 1; NmeTyr (N-methyl-Tyr) at position 2; thioether bridge via DIBut (1,4-diiodobutane) linker (1-8); side-chain amide(5-9) between Lys5 and Asp9; C-terminal amide (NH2)
notes: Synthetic bicyclic peptide
B9: VIpep-3 (peptide)
peptide: Ac-CPPYLPRRLCTLLLRS-OH
modifications: disulfide 1-10
SMILES: CC(=O)N[C@H]1CSSC[C@@H](C(=O)N[C@H](C(=O)N[C@@H](CC(C)C)C(=O)N[C@@H](CC(C)C)C(=O)N[C@@H](CC(C)C)C(=O)N[C@@H](CCCNC(=N)N)C(=O)N[C@@H](CO)C(=O)O)[C@@H](C)O)NC(=O)[C@H](CC(C)C)NC(=O)[C@H](CCCNC(=N)N)NC(=O)[C@H](CCCNC(=N)N)NC(=O)[C@@H]2CCCN2C(=O)[C@H](CC(C)C)NC(=O)[C@H](Cc2ccc(O)cc2)NC(=O)[C@@H]2CCCN2C(=O)[C@@H]2CCCN2C1=O
notes: also called Vlpep-3
B10: Seq-8 (peptide)
peptide: [Mpa][NMeY]L[Sar]CYLCSLI-NH2
modifications: linker 1-5-8 via TBMB
SMILES: CC[C@H](C)[C@H](NC(=O)[C@H](CC(C)C)NC(=O)[C@H](CO)NC(=O)[C@@H]1CSCc2cc3cc(c2)CSC[C@H](NC(=O)CN(C)C(=O)[C@H](CC(C)C)NC(=O)[C@H](Cc2ccc(O)cc2)N(C)C(=O)CCSC3)C(=O)N[C@@H](Cc2ccc(O)cc2)C(=O)N[C@@H](CC(C)C)C(=O)N1)C(N)=O
notes: Synthetic bicyclic peptide
B11: Seq-9 (peptide)
peptide: [Mpa][NMeY]L[Sar]CYLC[Dap]LI-NH2
modifications: linker 1-5-8 via TBMB
SMILES: CC[C@H](C)[C@H](NC(=O)[C@H](CC(C)C)NC(=O)[C@H](CN)NC(=O)[C@@H]1CSCc2cc3cc(c2)CSC[C@H](NC(=O)CN(C)C(=O)[C@H](CC(C)C)NC(=O)[C@H](Cc2ccc(O)cc2)N(C)C(=O)CCSC3)C(=O)N[C@@H](Cc2ccc(O)cc2)C(=O)N[C@@H](CC(C)C)C(=O)N1)C(N)=O
notes: Synthetic bicyclic peptide

Biological target: T1, Vasoactive intestinal peptide receptor …
Experiment: summary of the Examples (binding to VIPR2-expressing cells)

Binding result, binds:
B1
B2
B3
B4
B5
B6
B7
B8

Biological target: T1, Vasoactive intestinal peptide receptor …
Experiment: competitive cell-based ELISA on human VIPR2-expressing cells; competitor Biotin-VIpep-3 (1000 nM)
Procedure: (§1) To confirm the binding activity of the amino acid substituted peptides to VIPR2, a competitive binding assay was constructed using the cell-based ELISA method shown in FIG. 3. The following is a brief description of this cell-based ELISA method. Human VIPR2-expressing cell line (Catalog No. HTS079RTA, manufactured by EUROFINS) was spread in a 96-well plate using the culture medium provided by the manufacturer, and cultured overnight at 37° C. in a CO₂ incubator. After washing the plates with HBSS containing 0.1% BSA, the mixtures containing Biotin-VIpep-3 (1000 nM) and any concentration of amino acid substituted peptide or VIpep-3 were prepared and added at 50 μL/well. After reaction on ice for 60 minutes, the plate was washed with 0.1% BSA containing HBSS. Biotin-VIpep-3 bound to VIPR2-expressing cells adhering to the plate was detected with SA-HRP (catalog no. ab7403, Abcam). For HRP quantification, SuperSignal ELISA Pico Chemiluminescent Substrate (Catalog No. 37070, ThermoFisher) was used to measure chemiluminescence values. […] In other words, the binding activity of amino acid substituted peptides and VIpep-3 to VIPR2 is detected as a competitive inhibitory activity against Biotin-VIpep-3 binding. […] Then, using the 50% inhibitory activity value of VIpep-3 as 1, the relative inhibitory activity values of the amino acid-substituted peptides were calculated.

Binding result, binds:
B9

Biological target: T1, Vasoactive intestinal peptide receptor …
Experiment: competitive cell-based ELISA on human VIPR2-expressing cells; competitor Biotin-VIpep-3 (1000 nM), N=4
Procedure: as §1

Binding result, binds:
B10
B11
